According to a protein production outcome set (Wang et al. 2014):

Test: label from the status in PepcDB records

| Sequence | protein production |
| --- | --- |
| AADGEGRGELSPKIKAGDLESKLIVPKNNGLKITGTFLDEISHDIPHQNWGEKEWDLDFQHMKRIGIDTVIMIRSGYRKFMTYPSPYLLKKGCYMPSVDLVDMYLRLAEKYNMKFYFGLYDSGRYWDTGDLSWEIEDNKYVIDEVWKMYGEKYKSFGGWYISGEISRATKGAIDAFRAMGKQCKDISNGLPTFISPWIDGKKAIMGTGKLTREDAVSVQQHEKEWNEIFDGIHEVVDACAFQDGHIDYDELDAFFTVNKKLADKYGMQCWTNAESFDRDMPIRFLPIKFDKLRMKLEAAKRAGYDKAITFEFSHFMSPQSAYLQAGHLYDRYREYFEIK | not failed |
| AADKRIDGNGNPETREIKISDYDEITFVGSADFEYEQSDKAPYLSVTIDENLFDYLVTEVEGGTLKIYPKSIKKGFNNNSYDLRPTVYKIKSNSKELKELNTVGSGSFIISKPTKVNRMEINMAGSGNVELRGPVKGYKLECNMAGSGNIIAKDIQLDNLSCSLASSGEIEVIGTVDRASFNVAGSGEIKAFDCQARKAECNIASSGEISVYATQILDANIVGSGEIHYKGDPEISKSIMGSGSINKVK | not failed |
| AAIYHLDVSGQATIRFRPPAFLKTLVSEHAGTTRLNTLSMIHHDDRHMLSNAYSKLREAKHSLTLVYRIVTPEGKLHWIEDHMRSSFSDD | failed |
| AAKPQIVEVTDDMPVEPIGVGIPEAGQTYPVIMGDYAAQQARWARIDVQPGTALSKPKPLIAKLDPELGETGPEWAPVNP | failed |
| AASSRSWKSWFIEQYFWLKRDKSYYSKQDDPSFQRYLDACREQSDKPYQLDTNLVNGPLVQENLYGMQVYSWNDNGKPDQKTIIYLAGGSYLNNPTTYHINMLKTLSTSLDAKIVLPIYPKAPRYTYNYTMPKLVNLYQHYYHKNQNVFLMGDSAGGGLALGLAHALHNESVPQPKQLVLLSPWLDVTMSHPEIPEYEDADPILSSWGLKRVGELWAYSADNTNHIYVSPKNGPITYLPPITLFTGTREIFYPDIRDYAAKLKAANHNITFITQEGMNHVYPIYPIEEAKTAQYQIIDAINKT | failed |
| ACKVLYSLGELNERFVPKTLKERVASIADVHFEHWNKYGDSVTATVNKADKSKDRTYKTECPLEFYDALPRVGEICYAYEIFLEPQFESCEYTEHMYLNLQTPRNYAILLRNKLPRLAEMPLFSNQGKLHVRVANAPLEVIIQNSEQLELLH | failed |
| ADSPVLMVYGLDQSKMNCDRVFNVFCLYGNVEKVKFMKSKPGAAMVEMADGYAVDRAITHLNNNFMFGQKMNVCVSKQPAIMPGQSYGLEDGSCSYKDFSESRNNRFSTPEQAAKNRIQHPSNVLHFFNAPLEVTEENFFEICDELGVKRPTSVKVFSGKSERSSSGLLEWDSKSDALETLGFLNHYQMKNPNGPYPYTLKLCFSTAQHAS | not failed |
| AEDPILRAIPENAFDGIAVTDAGGHVVYANSTYLALTGAATMQDVRPVERVFIGNPDVSEAVFRLLKAAREGRRLQEEVRVAGADGTQGRWMRLRVRPLGTSKREARQTVWSIADITRDRERQEDVFQTLQHAIEYLDHAPCGFFSVNPAGNLVYVNATLANWLDH | failed |
| AEGQTVYWHAWGGDPKINAFIAWVGEQARARHGFMLEQVKLADTTEAVARVLAEKQAGRTEGGAVDLIWINGENFAAMKAQGLLSEPFAESLPNWTHVDVAGKPAVVTDFTEPTGGLESPWAMAQLVFEHDSARLPAPPRTLAQLLAWIEVNPGRFTFPQPPDYLGTTFLKQVLYGVIEDPGLLQKPVDPATYETVTAPLWTWLDRAEPYLWREGRAYPANEPALGQLFADGEIAISFAFNPGRASAAIAAGELPETVRTFTLEGGTIGNASFVAIPFNAAHAAGAKVIANLLLDPEVQARAQDPAVLGFQTVLDVAALPEPDRARFAAL | failed |
| AEICLITGTPGSGKTLKMVSMMANDEMFKPDENGIRRKVFTNIKGLKIPHTYIETDAKKLPKSTDEQLSAHDMYEWIKKPENIGSIVIVDEAQDVWPARSAGSKIPENVQWLNTHRHQGIDIFVLTQGPKLLDQNLRTLVRKHYHIASNKMGMRTLLEWKICADDPVKMASSAFSSIYTLDKKVYDLYESAEVHTVNKVKRSK | not failed |
| AERTIQLPKPDMNRAGLLMKALSERHSTREYASKALSNTDLSDLLWAANGINRSSEGKRTAPSAMNRQDIDIYVVLPQGTYLYDAKGHKLNLISEGDHRSAVAGGQAFVNNAPVSLVLVSDLSKLGDAKSNHVQLMGAMDAGIVSQNISLFCSAARLATVPRASMDLVRLKAALKLKDTQMPMMNHPVGYFK | not failed |
| AGGTTPAELRAAAADFTWLLNRFATETAGVVDAIAVSSDGLLIAVSELREHADSERLAAIVSGITSLAAGASGNYGLGGLNKVIIDLEGGHVLVSAIGSGAVLGVVTDKEAKLGNIAYEMTLFANRAGAALS | failed |
